Results published in paper PMC4944999 (PLoS ONE, 2016).

Target: PeB^GF-Lys, double substituted variant ([change], [change]) of PeB-Lys (mouse)
Assay: SPR

Substance: hemagglutinin (HA) of influenza A/California/7/2009 H1N1, in the split vaccine Pandemrix (natural protein)
- fold amount of hemagglutinin bound compared to PeB: 20 fold
